The values below come from US20120034160A1 (AbbVie / Abbott, published 2012).

The target of one experiment is Recombinant Human IL-1β (human, UniProt P01584 117-269). The experiment is described as follows: cell-based or functional assay.
Another experiment deals with T1, Recombinant Human IL-17 (human, UniProt Q16552 20-155, limits assumed).
T1 sequence (looked up): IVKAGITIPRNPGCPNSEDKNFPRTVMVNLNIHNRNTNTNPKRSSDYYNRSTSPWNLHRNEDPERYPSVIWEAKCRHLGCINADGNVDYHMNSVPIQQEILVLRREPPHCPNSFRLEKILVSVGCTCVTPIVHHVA
Briefly: cell-based or functional assay.

B1: DVD1608 (bispecific antibody, human IgG1, kappa)
heavy: not shown
light: EIVLTQSPDFQSVTPKEKVTITCRASQDIGSELHWYQQKPDQPPKLLIKYASHSTSGVPSRFSGSGSGTDFTLTINGLEAEDAGTYYCHQTDSLPYTFGPGTKVDIKRTVAAPSVFIFPPETTVTQSPSSLSASVGDRVTITCITSTDIDVDMNWYQQKPGKPPKLLISQGNTLRPGVPSRFSSSGSGTDFTFTISSLQPEDFATYYCLQSDNLPLTFGQGTKLEIKRTVAAPSVFIFPPSDEQLKSGTASVVCLLNNFYPREAKVQWKVDNALQSGNSQESVTEQDSKDSTYSLSSTLTLSKADYEKHKVYACEVTHQGLSSPVTKSFNRGEC
For B1, the “C-Terminal VD IL-1β Neutralization Assay EC50” value in the experiment with Recombinant Human IL-1β came out at 4.25 nM. The “N-terminal VD IL-17 Neutralization Assay EC50” value with Recombinant Human IL-17 is 0.0082 nM.

B2: DVD1614 (bispecific antibody, human IgG1, kappa)
heavy: not shown
light: EIVLTQSPDFQSVTPKEKVTITCRASQNIGSELHWYQQKPDQSPKLLIKYASHSISGVPSRFSGSGSGTDFTLTINGLEAEDAATYYCHQSDTLPHTFGQGTKVDIKRTVAAPSVFIFPPDTQVTQSPSSLSASVGDRVTITCITSTDIDVDMNWYQQKPGKPPKLLISQGNTLRPGVPSRFSSSGSGTDFTFTISSLQPEDFATYYCLQSDNLPLTFGQGTKLEIKRTVAAPSVFIFPPSDEQLKSGTASVVCLLNNFYPREAKVQWKVDNALQSGNSQESVTEQDSKDSTYSLSSTLTLSKADYEKHKVYACEVTHQGLSSPVTKSFNRGEC
With B2, the “C-Terminal VD IL-1β Neutralization Assay EC50” value with Recombinant Human IL-1β was found to be 0.801 nM. Moreover, the “N-terminal VD IL-17 Neutralization Assay EC50” value in the experiment with Recombinant Human IL-17 came out at 0.0142 nM.

B3: DVD1618 (bispecific antibody, human IgG1, kappa)
heavy: not shown
light: EIVLTQSPDFQSVTPKEKVTITCRASQNIGSELHWYQQKPDQSPKLLIKYASHSISGVPSRFSGSGSGTDFTLTINGLEAEDAATYYCHQSDTLPHTFGQGTKVDIKRTVAAPSVFIFPPETTVTQSPSSLSASVGDRVTITCITSTDIDVDMNWYQQKPGKPPKLLISQGNTLRPGVPSRFSSSGSGTDFTFTISSLQPEDFATYYCLQSDNLPLTFGQGTKLEIKRTVAAPSVFIFPPSDEQLKSGTASVVCLLNNFYPREAKVQWKVDNALQSGNSQESVTEQDSKDSTYSLSSTLTLSKADYEKHKVYACEVTHQGLSSPVTKSFNRGEC
Turning to B3, the “C-Terminal VD IL-1β Neutralization Assay EC50” value in the experiment with Recombinant Human IL-1β turned out to be 2.75 nM. The “N-terminal VD IL-17 Neutralization Assay EC50” value with Recombinant Human IL-17 turned out to be 0.0045 nM.

B4: DVD1609 (bispecific antibody, human IgG1, kappa)
heavy: not shown
light: DIQMTQSPSSLSASVGDRVTITCRASGNIHNYLTWYQQTPGKAPKLLIYNAKTLADGVPSRFSGSGSGTDYTFTISSLQPEDIATYYCQHFWSIPYTFGQGTKLQITRTVAAPSVFIFPPEIVLTQSPDFQSVTPKEKVTITCRASQNIGSELHWYQQKPDQSPKLLIKYASHSISGVPSRFSGSGSGTDFTLTINGLEAEDAATYYCHQSDTLPHTFGQGTKVDIKRTVAAPSVFIFPPSDEQLKSGTASVVCLLNNFYPREAKVQWKVDNALQSGNSQESVTEQDSKDSTYSLSSTLTLSKADYEKHKVYACEVTHQGLSSPVTKSFNRGEC
As for B4, the “N-Terminal VD IL-1β Neutralization Assay EC50” value with Recombinant Human IL-1β was 0.0038 nM. Also, in the experiment with Recombinant Human IL-17, the “C-terminal VD IL-17 Neutralization Assay EC50” value was determined as 0.173 nM.

B5: DVD1611 (bispecific antibody, human IgG1, kappa)
heavy: not shown
light: DIQMTQSPSSLSASVGDRVTITCRASGNIHNYLTWYQQTPGKAPKLLIYNAKTLADGVPSRFSGSGSGTDYTFTISSLQPEDIATYYCQHFWSIPYTFGQGTKLQITRTVAAPSVFIFPPEIVLTQSPDFQSVTPKEKVTITCRASQNIGSELHWYQQKPDQSPKLLIKYASHSISGVPSRFSGSGSGTDFTLTINGLEAEDAATYYCHQSDTLPHTFGQGTKVDIKRTVAAPSVFIFPPSDEQLKSGTASVVCLLNNFYPREAKVQWKVDNALQSGNSQESVTEQDSKDSTYSLSSTLTLSKADYEKHKVYACEVTHQGLSSPVTKSFNRGEC
Regarding B5, the “N-Terminal VD IL-1β Neutralization Assay EC50” value with Recombinant Human IL-1β is 0.0041 nM. Further, the “C-terminal VD IL-17 Neutralization Assay EC50” value with Recombinant Human IL-17 worked out at 0.3 nM.

B6: DVD1607 (bispecific antibody, human IgG1, kappa)
heavy: not shown
light: ETTVTQSPSSLSASVGDRVTITCITSTDIDVDMNWYQQKPGKPPKLLISQGNTLRPGVPSRFSSSGSGTDFTFTISSLQPEDFATYYCLQSDNLPLTFGQGTKLEIKRTVAAPSVFIFPPEIVLTQSPDFQSVTPKEKVTITCRASQDIGSELHWYQQKPDQPPKLLIKYASHSTSGVPSRFSGSGSGTDFTLTINGLEAEDAGTYYCHQTDSLPYTFGPGTKVDIKRTVAAPSVFIFPPSDEQLKSGTASVVCLLNNFYPREAKVQWKVDNALQSGNSQESVTEQDSKDSTYSLSSTLTLSKADYEKHKVYACEVTHQGLSSPVTKSFNRGEC
As to B6, in the experiment with Recombinant Human IL-1β, the “N-Terminal VD IL-1β Neutralization Assay EC50” value is 0.455 nM. The “C-terminal VD IL-17 Neutralization Assay EC50” value with Recombinant Human IL-17 stood at 0.0031 nM.

B7: DVD1613 (bispecific antibody, human IgG1, kappa)
heavy: not shown
light: DTQVTQSPSSLSASVGDRVTITCITSTDIDVDMNWYQQKPGKPPKLLISQGNTLRPGVPSRFSSSGSGTDFTFTISSLQPEDFATYYCLQSDNLPLTFGQGTKLEIKRTVAAPSVFIFPPEIVLTQSPDFQSVTPKEKVTITCRASQNIGSELHWYQQKPDQSPKLLIKYASHSISGVPSRFSGSGSGTDFTLTINGLEAEDAATYYCHQSDTLPHTFGQGTKVDIKRTVAAPSVFIFPPSDEQLKSGTASVVCLLNNFYPREAKVQWKVDNALQSGNSQESVTEQDSKDSTYSLSSTLTLSKADYEKHKVYACEVTHQGLSSPVTKSFNRGEC
As for B7, in the experiment with Recombinant Human IL-1β, the “N-Terminal VD IL-1β Neutralization Assay EC50” value worked out at 0.246 nM. Moreover, the “C-terminal VD IL-17 Neutralization Assay EC50” value with Recombinant Human IL-17 was 0.101 nM.

B8: DVD1617 (bispecific antibody, human IgG1, kappa)
heavy: not shown
light: ETTVTQSPSSLSASVGDRVTITCITSTDIDVDMNWYQQKPGKPPKLLISQGNTLRPGVPSRFSSSGSGTDFTFTISSLQPEDFATYYCLQSDNLPLTFGQGTKLEIKRTVAAPSVFIFPPEIVLTQSPDFQSVTPKEKVTITCRASQNIGSELHWYQQKPDQSPKLLIKYASHSISGVPSRFSGSGSGTDFTLTINGLEAEDAATYYCHQSDTLPHTFGQGTKVDIKRTVAAPSVFIFPPSDEQLKSGTASVVCLLNNFYPREAKVQWKVDNALQSGNSQESVTEQDSKDSTYSLSSTLTLSKADYEKHKVYACEVTHQGLSSPVTKSFNRGEC
With B8, the “N-Terminal VD IL-1β Neutralization Assay EC50” value in the experiment with Recombinant Human IL-1β stood at 0.247 nM. Also, the “C-terminal VD IL-17 Neutralization Assay EC50” value in the experiment with Recombinant Human IL-17 came to 0.0424 nM.

B9: DVD1615 (bispecific antibody, human IgG1, kappa)
heavy: not shown
light: DTVVTQSPAFLSVTPGEKVTITCITSTDIDVDMNWYQQKPDQPPKLLISQGNTLRPGVPSRFSSSGSGTDFTFTISSLEAEDAATYYCLQSDNLPLTFGQGTKLEIKRTVAAPSVFIFPPEIVLTQSPDFQSVTPKEKVTITCRASQNIGSELHWYQQKPDQSPKLLIKYASHSISGVPSRFSGSGSGTDFTLTINGLEAEDAATYYCHQSDTLPHTFGQGTKVDIKRTVAAPSVFIFPPSDEQLKSGTASVVCLLNNFYPREAKVQWKVDNALQSGNSQESVTEQDSKDSTYSLSSTLTLSKADYEKHKVYACEVTHQGLSSPVTKSFNRGEC
In the case of B9, the “N-Terminal VD IL-1β Neutralization Assay EC50” value with Recombinant Human IL-1β worked out at 0.191 nM. In addition, in the experiment with Recombinant Human IL-17, the “C-terminal VD IL-17 Neutralization Assay EC50” value came out at 0.061 nM.

B10: DVD1610 (bispecific antibody, human IgG1, kappa)
heavy: not shown
light: EIVLTQSPDFQSVTPKEKVTITCRASQNIGSELHWYQQKPDQSPKLLIKYASHSISGVPSRFSGSGSGTDFTLTINGLEAEDAATYYCHQSDTLPHTFGQGTKVDIKRTVAAPSVFIFPPDIQMTQSPSSLSASVGDRVTITCRASGNIHNYLTWYQQTPGKAPKLLIYNAKTLADGVPSRFSGSGSGTDYTFTISSLQPEDIATYYCQHFWSIPYTFGQGTKLQITRTVAAPSVFIFPPSDEQLKSGTASVVCLLNNFYPREAKVQWKVDNALQSGNSQESVTEQDSKDSTYSLSSTLTLSKADYEKHKVYACEVTHQGLSSPVTKSFNRGEC
Take B10: the “C-Terminal VD IL-1β Neutralization Assay EC50” value with Recombinant Human IL-1β was 1 nM. Further, the “N-terminal VD IL-17 Neutralization Assay EC50” value with Recombinant Human IL-17 amounted to 0.0046 nM.

B11: DVD1612 (bispecific antibody, human IgG1, kappa)
heavy: not shown
light: EIVLTQSPDFQSVTPKEKVTITCRASQNIGSELHWYQQKPDQSPKLLIKYASHSISGVPSRFSGSGSGTDFTLTINGLEAEDAATYYCHQSDTLPHTFGQGTKVDIKRTVAAPSVFIFPPDIQMTQSPSSLSASVGDRVTITCRASGNIHNYLTWYQQTPGKAPKLLIYNAKTLADGVPSRFSGSGSGTDYTFTISSLQPEDIATYYCQHFWSIPYTFGQGTKLQITRTVAAPSVFIFPPSDEQLKSGTASVVCLLNNFYPREAKVQWKVDNALQSGNSQESVTEQDSKDSTYSLSSTLTLSKADYEKHKVYACEVTHQGLSSPVTKSFNRGEC
As to B11, the “C-Terminal VD IL-1β Neutralization Assay EC50” value with Recombinant Human IL-1β is 0.153 nM. Also, in the experiment with Recombinant Human IL-17, the “N-terminal VD IL-17 Neutralization Assay EC50” value worked out at 0.0238 nM.

B12: DVD1606 (bispecific antibody, human IgG1, kappa)
heavy: not shown
light: EIVLTQSPDFQSVTPKEKVTITCRASQDIGSELHWYQQKPDQPPKLLIKYASHSTSGVPSRFSGSGSGTDFTLTINGLEAEDAGTYYCHQTDSLPYTFGPGTKVDIKRTVAAPSVFIFPPDTVVTQSPAFLSVTPGEKVTITCITSTDIDVDMNWYQQKPDQPPKLLISQGNTLRPGVPSRFSSSGSGTDFTFTISSLEAEDAATYYCLQSDNLPLTFGQGTKLEIKRTVAAPSVFIFPPSDEQLKSGTASVVCLLNNFYPREAKVQWKVDNALQSGNSQESVTEQDSKDSTYSLSSTLTLSKADYEKHKVYACEVTHQGLSSPVTKSFNRGEC
For the molecule B12, the “C-Terminal VD IL-1β Neutralization Assay EC50” value with Recombinant Human IL-1β came out at 1.63 nM. For the same molecule, the “N-terminal VD IL-17 Neutralization Assay EC50” value with Recombinant Human IL-17 came out at 0.0188 nM.

B13: DVD1616 (bispecific antibody, human IgG1, kappa)
heavy: not shown
light: EIVLTQSPDFQSVTPKEKVTITCRASQNIGSELHWYQQKPDQSPKLLIKYASHSISGVPSRFSGSGSGTDFTLTINGLEAEDAATYYCHQSDTLPHTFGQGTKVDIKRTVAAPSVFIFPPDTVVTQSPAFLSVTPGEKVTITCITSTDIDVDMNWYQQKPDQPPKLLISQGNTLRPGVPSRFSSSGSGTDFTFTISSLEAEDAATYYCLQSDNLPLTFGQGTKLEIKRTVAAPSVFIFPPSDEQLKSGTASVVCLLNNFYPREAKVQWKVDNALQSGNSQESVTEQDSKDSTYSLSSTLTLSKADYEKHKVYACEVTHQGLSSPVTKSFNRGEC
Consider B13, for which the “C-Terminal VD IL-1β Neutralization Assay EC50” value with Recombinant Human IL-1β came out at 1.12 nM. Besides, in the experiment with Recombinant Human IL-17, the “N-terminal VD IL-17 Neutralization Assay EC50” value was found to be 0.0062 nM.

B14: DVD1619 (bispecific antibody, human IgG1, kappa)
heavy: not shown
light: DIQMTQSPSSLSASVGDRVTITCRASGNIHNYLTWYQQTPGKAPKLLIYNAKTLADGVPSRFSGSGSGTDYTFTISSLQPEDIATYYCQHFWSIPYTFGQGTKLQITRTVAAPDIQMTQSPSSLSASVGDRVTITCRASSGIISYIDWFQQKPGKAPKRLIYATFDLASGVPSRFSGSGSGTDYTLTISSLQPEDFATYYCRQVGSYPETFGQGTKLEIKRTVAAPSVFIFPPSDEQLKSGTASVVCLLNNFYPREAKVQWKVDNALQSGNSQESVTEQDSKDSTYSLSSTLTLSKADYEKHKVYACEVTHQGLSSPVTKSFNRGEC
For B14, the “N-Terminal VD IL-1β Neutralization Assay EC50” value with Recombinant Human IL-1β was determined as 0.139 nM. Also, in the experiment with Recombinant Human IL-17, the “C-terminal VD IL-17 Neutralization Assay EC50” value worked out at 0.0345 nM.
